According to the RNAGym collection of RNA variant scans (doi:10.1093/nar/gkz1192):

B1: CPEB3 Ribozyme (parent)
chain: UAACAGGGGGCCACAGCAGAAGCGUUCACGUCGCAGCCCCUGUCAGAUUCUGGUGAAUCUGCGAAUUCUGCUGUAUAUCUC

Variants of: B1
Test: self-cleavage, relative activity (ratio to wild type); higher = more cleavage; in vitro, sequencing
Method in brief: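 Relative activity compares each variant's cleaved/total read fraction with that of the unmutated ribozyme. To get these fractions, barcoded CPEB3 ribozyme libraries from rounds of error-prone PCR were transcribed with T7 RNA polymerase for 5 hours at 37°C and then given 15 min of DNase I treatment before EDTA was added. The RNAs were reverse transcribed with template switching and sequenced on Illumina, and DNA sequencing linked barcodes to variants. A minimum of 5 reads applied, and three batches were averaged.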

Variant | self-cleavage
A18G A35C | 0.38
A18G A35U | 0.27
A18G A35G | 1.06
G16C A64U | 0.28
C17U U74A | 1.02
C17U U74C | 0.97
C17U C34A | 0.16
C17G G53C | 0.45
A18G C23A | 0.26
A18G C23U | 0.12
A18G C23G | 0.61
C17U U78C | 0.63
G16U U54G | 0.55
G16U U78C | 0.27
C17A A75U | 0.2
A18C A65G | 0.26
A18C A65U | 0.16
G16U U41C | 0.41
C17U U25C | 0.25
C17U U25A | 0.27
C17U A65U | 0.55
C17U U66C | 0.23
A18C U25C | 0.27
C17U A28C | 0.51

Variant | self-cleavage
C17U A28U | 0.41
C17U A28G | 0.36
C17A C62G | 0.17
A18G A64G | 0.43
A18G A64U | 0.29
G16C C23A | 0.5
C17U A35G | 1.26
G16C U76C | 0.41
A18C U78C | 0.4
C17U A45G | 0.65
C17A A35G | 0.49
G16C A21G | 0.32
G16C A21U | 0.1
C17U U80C | 0.85
C17A A45U | 0.22
A18C A28G | 0.29
A18C A28U | 0.37
A18C A28C | 0.43
C17G A56G | 0.38
A18C C38U | 0.12
G16U G36A | 0.37
C17A A57G | 0.34
A18C C32U | 0.43
G16C U41C | 0.42

Variant | self-cleavage
G16C A20G | 0.11
C17U G53C | 0.66
A18C C40A | 0.34
A18C U58C | 0.3
A18C U58A | 0.21
G16U C23U | 0.16
G16A U78C | 0.59
C17G A35U | 0.32
C17G A35G | 1.04
A18C U48A | 0.2
A18C U48C | 0.25
A18G A56C | 0.25
A18G A56G | 0.55
A18G A56U | 0.35
A18G A20G | 0.49
A18G A20U | 0.27
A18C C62U | 0.39
A18C C68A | 0.18
A18C U54A | 0.37
A18C U54C | 0.32
G16C U31C | 0.18
C17A U66C | 0.07
G16C A56G | 0.21
C17A U72G | 0.16

Variant | self-cleavage
A18C A56U | 0.14
A18C A56G | 0.17
G16C G24C | 0.2
C17G U25A | 0.09
C17G U25C | 0.11
C17G U25G | 0.06
A18C A57G | 0.3
G16C U78C | 0.22
G16U C39U | 0.46
G16C U49C | 0.08
C17A A28G | 0.22
C17G U78C | 0.48
C17U U48A | 0.24
C17U U48C | 0.31
G16C U51G | 0.52
G16C U51A | 0.11
G16U A56G | 0.28
C17A U41A | 0.1
A18C A45C | 0.21
A18C A45G | 0.29
A18C A45U | 0.1
C17A U26A | 0.36
C17U G73A | 1.09
G16C U43C | 0.21

Variant | self-cleavage
C17A A18G | 0.48
C17A A18U | 0.11
A18C G30A | 0.31
G16U U31C | 0.19
G16C C50U | 0.18
A18C U49G | 0.17
A18C U49C | 0.29
C17G A65G | 0.25
C17G A65U | 0.19
G16U G24U | 0.11
G16U G24A | 0.19
C17G U26C | 0.16
C17G U26A | 0.29
G16U U69C | 0.13
G16U U69A | 0.22
C17U A18G | 0.23
C17A U60A | 0.26
C17A U60C | 0.18
G16C A57G | 0.57
A18G A47U | 0.44
A18G A47G | 0.66
A18G A47C | 0.12
G16C U66C | 0.16
C17U G46U | 0.23

Variant | self-cleavage
C17U A21G | 0.32
C17U A21C | 0.12
A18C A75G | 0.41
G16U A57G | 0.26
C17G U54A | 0.54
G16C U54C | 0.46
C17U C68U | 0.51
C17U U58C | 0.17
C17U U58G | 0.15
A18G A21G | 0.4
A18G A21U | 0.33
A18G A21C | 0.4
A18C A64G | 0.38
G16C C37U | 0.16
C17G G33A | 0.24
C17U U49C | 0.15
C17A U80G | 0.23
C17A U80C | 0.24
G16C A28U | 0.24
G16C A28G | 0.15
C17U U31C | 0.42
G16U C32A | 0.2
C17U U69G | 0.25
C17U U69C | 0.21

Variant | self-cleavage
C17U U69A | 0.4
G16U U74C | 0.58
G16C U48G | 0.18
G16C U26A | 0.3
G16C U26C | 0.23
C17U G30U | 0.09
C17U G24C | 0.11
A18C U80C | 0.54
A18C U80A | 0.54
G16U U49G | 0.14
G16U U49C | 0.1
A18C C27U | 0.21
A18C U60C | 0.28
A18C U60A | 0.23
C17U U43C | 0.41
C17U U43A | 0.98
G16C G52U | 0.48
A18C C37A | 0.33
C17U C40U | 0.21
C17A A65U | 0.15
A18G A57U | 0.36
A18G A57G | 0.55
A18G A57C | 0.49
